# Assays:
# [1] = Encapsulation efficiency (ultrafiltration, BCA assay); format: physicochemical; details: LL37:SDS 1:1 PCL5k-b-PEG5k NPs
# [2] = Particle size and polydispersity by dynamic light scattering; format: physicochemical; details: LL37 pre-ion paired with SDS 1:1 charge ratio, PCL5k-b-PEG5k NPs
substance,measurement,setting,value
"LL37: cationic antibiotic peptide, 1719 Da, sequence FKRIVQRIKDFLR (nanoparticle formulation; LL37) [reference compound]",Encapsulation efficiency,[1],over 95%
same,NP diameter,[2],~120 nm
